These results are taken from patent US20240190985A1 (NEW YORK UNIVERSITY, published 2024).

To fix the notation:
B3: CD99 endogenously expressed on cells (Jurkat, KOPT-K1) (receptor)
chain: DGGFDLSDALPDNENKKPTAIPKKPSAGDDFDLGDAVVDGENDDPRPPNPPKPMPNPNPNHPSSSGSFSDADLADGVSGGEGKGGSDGGGSHRKEGEEADAPGVIPGIVGAVVVAVAGAISSFIAYQKKKLCFKENAEQGEVDMESHRNANAEPAVQRTLLEK
modifications: O-linked glycosylation (natural, on cells)
notes: also called endogenously expressed CD99; CD99 on cells

Test [1] has as its target B3. As to the kind of experiment: flow cytometry titration on KOPT-K1 cells, anti-Fab secondary antibody (FIG. 3B).
Test [2] addresses B3. The test is described as follows: cell-based or functional assay.
The target of test [3] is T1, CD99 peptide containing the 10A1 epitope, Ac-GENDDPRPPNPPKPM-amide (human).
T1 construct: Synthetic peptide (New England Peptide); also called residues 62-76
T1 peptide: Ac-GENDDPRPPNPPKPM-NH2
The test is described as follows: X-ray crystal structure of the complex, 3.10 Å.

Test [4] addresses T2, tetravalent SAV-10A1 Fab complex (A4 streptavidin with biotinylated 10A1 Fab) (UniProt P22629 37-163, limits assumed, biotin on the C-terminal AviTag of the Fab heavy chain).
T2 construct: also called tetravalent SAV-Fab complex; not shown: N-terminal 6xHis tag
The test is described as follows: flow cytometry titration on KOPT-K1 cells (FIG. 4C). On the technique in general: In flow cytometry, cells or beads pass a laser one at a time.

T2 sequence (P22629 37-163 limits assumed, one chain of several): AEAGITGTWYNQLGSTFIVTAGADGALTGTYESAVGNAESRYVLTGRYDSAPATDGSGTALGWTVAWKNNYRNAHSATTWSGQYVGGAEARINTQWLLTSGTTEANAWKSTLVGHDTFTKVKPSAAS

B1: 10A1 IgG-HCscFv (antibody)
heavy: QVQLQQSGPVLVKPSQTLSLTCAISGDSISSDTTAWSWIRRSPSRGLEWLGWTYYRSKWFNYYAVSVKGRVTINPDTSKNQFSLQLSSVTPEDTAVYYCARGNGNGGMDVWGQGTTVTVSSASTKGPSVFPLAPSSKSTSGGTAALGCLVKDYFPEPVTVSWNSGALTSGVHTFPAVLQSSGLYSLSSVVTVPSSSLGTQTYICNVNHKPSNTKVDKKVEPKSCDKTHTCPPCPAPEAAGGPSVFLFPPKPKDTLMISRTPEVTCVVVDVSHEDPEVKFNWYVDGVEVHNAKTKPREEQYNSTYRVVSVLTVLHQDWLNGKEYKCKVSNKALGAPIEKTISKAKGQPREPQVYTLPPSREEMTKNQVSLTCLVKGFYPSDIAVEWESNGQPENNYKTTPPVLDSDGSFFLYSKLTVDKSRWQQGNVFSCSVMHEALHNHYTQKSLSLSPGKSSGSSGSSSSSGSSSQVQLQQSGPVLVKPSQTLSLTCAISGDSISSDTTAWSWIRRSPSRGLEWLGWTYYRSKWFNYYAVSVKGRVTINPDTSKNQFSLQLSSVTPEDTAVYYCARGNGNGGMDVWGQGTTVTVSSGSSSSSSGSSGSSSSSYVLTQPASASVSPGQTARITCSGDALPKQYAYWYQQKPGQAPVLVIFKDSERPSGVPERFSGSSSGTTVTLTISGAQAEDEADYYCQSVDNSGFYQVFGGGTQLTVL
light: SYVLTQPASASVSPGQTARITCSGDALPKQYAYWYQQKPGQAPVLVIFKDSERPSGVPERFSGSSSGTTVTLTISGAQAEDEADYYCQSVDNSGFYQVFGGGTQLTVLRTVAAPSVFIFPPSDEQLKSGTASVVCLLNNFYPREAKVQWKVDNALQSGNSQESVTEQDSKDSTYSLSSTLTLSKADYEKHKVYACEVTHQGLSSPVTKSFNRGEC
notes: Human IgG1 LALA-PG with the 10A1 scFv appended by a linker to the C-terminus of each heavy chain; Valency of four; also called 10A1 HCscFv; 10A1 HC-scFv
For B1, the “maximum fluorescence intensity relative to the bivalent and dodecavalent antibodies” value in test [1] is approximately 0.5 fold. For the same molecule, in test [2], the “IC50 of cytotoxicity (Annexin V, KOPT-K1 cells, 18 hours)” value came to 82 nM Fv.

B2: 10A1 Fab (Fab, V domains shown)
VH: QVQLQQSGPVLVKPSQTLSLTCAISGDSISSDTTAWSWIRRSPSRGLEWLGWTYYRSKWFNYYAVSVKGRVTINPDTSKNQFSLQLSSVTPEDTAVYYCARGNGNGGMDVWGQGTTVTVSS
VL: SYVLTQPASASVSPGQTARITCSGDALPKQYAYWYQQKPGQAPVLVIFKDSERPSGVPERFSGSSSGTTVTLTISGAQAEDEADYYCQSVDNSGFYQVFGGGTQLTVL
notes: Fab made in E. coli by attaching VH and VL to CH1 and CL; also called 10A1 in the Fab format; monovalent 10A1
On to B2, for which the binding result in test [3] is reported as “binds”.

Regarding B3, the binding result in test [4] was “binds”.
